Data reported in the Immune Epitope Database (IEDB).

Experiments:
HLA-B*08:01 [1] = assay: IEDB peptide-MHC binding, purified MHC/competitive/radioactivity; filed as Kd, often an IC50 or EC50 that approximates it; ≥ and ≤ were set here for values at or beyond the usual limits of such assays
HLA-B*07:02 [2] = assay: as above
HLA-A*24:02 = assay: as above; settings: source organism: SARS coronavirus Tor2
HLA-A*30:02 = assay: as above; settings: source organism: SARS coronavirus Tor2
HLA-A*01:01 [3] = assay: as above; settings: source organism: SARS coronavirus Tor2
HLA-A*02:03 = assay: as above; settings: source organism: SARS coronavirus Tor2
HLA-A*26:01 [4] = assay: as above; settings: source organism: SARS coronavirus Tor2
HLA-A*02:06 = assay: as above; settings: source organism: SARS coronavirus Tor2
HLA-A*02:02 = assay: as above; settings: source organism: SARS coronavirus Tor2
HLA-A*23:01 = assay: as above; settings: source organism: SARS coronavirus Tor2
HLA-A*29:02 = assay: as above; settings: source organism: SARS coronavirus Tor2
HLA-A*68:01 = assay: as above; settings: source organism: SARS coronavirus Tor2
HLA-A*11:01 [5] = assay: as above; settings: source organism: SARS coronavirus Tor2
HLA-A*33:01 = assay: as above; settings: source organism: SARS coronavirus Tor2
HLA-A*03:01 [6] = assay: as above; settings: source organism: SARS coronavirus Tor2
HLA-A*31:01 [7] = assay: as above; settings: source organism: SARS coronavirus Tor2
HLA-A*24:03 = assay: IEDB peptide-MHC binding, purified MHC/direct/fluorescence; filed as Kd, often an IC50 or EC50 that approximates it; ≥ and ≤ were set here for values at or beyond the usual limits of such assays
HLA-B*58:01 = assay: as above
HLA-A*02:01 = assay: as above
HLA-A*11:01 [8] = assay: as above
HLA-A*26:01 [9] = assay: as above
HLA-A*69:01 = assay: as above
HLA-B*40:01 = assay: as above
HLA-B*08:01 [10] = assay: as above
HLA-A*03:01 [11] = assay: as above
HLA-B*07:02 [12] = assay: as above
HLA-B*44:02 = assay: as above
HLA-A*31:01 [13] = assay: as above; settings: source organism: Giardia intestinalis
HLA-B*27:05 = assay: as above
HLA-B*15:01 = assay: as above
HLA-A*01:01 [14] = assay: as above; settings: source organism: Vibrio cholerae
[15] = source organism: Dengue virus 4 Philippines/H241/1956
[16] = source organism: Vaccinia virus WR
[17] = source organism: Dengue virus 2 Jamaica/1409/1983
[18] = source organism: Dengue virus 3 Martinique/1243/1999
[19] = source organism: Giardia intestinalis
[20] = source organism: Vibrio cholerae

IKTTAKEVAL
Kd (HLA-B*08:01 [1]; [15]): 4.46 µM

SAEMRLLSI
Kd (HLA-B*08:01 [1]; [16]): 0.0205 µM

HAQRIETWIL
Kd (HLA-B*08:01 [1]; source organism: Dengue virus 2 Peru/IQT2913/1996): 1.15 µM

LVMKDGRVL
Kd (HLA-B*07:02 [2]; [17]): 0.00107 µM

QLAKRFSRG
Kd (HLA-B*08:01 [1]; source organism: Dengue virus 3 Singapore/8120/1995): 1.28 µM

NMLRIMASL
Kd (HLA-A*24:02): ≥ 32.2 µM
Kd (HLA-A*30:02): ≥ 100 µM
Kd (HLA-A*01:01 [3]): ≥ 26.3 µM
Kd (HLA-A*02:03): 0.0375 µM
Kd (HLA-A*26:01 [4]): 18.2 µM
Kd (HLA-A*02:06): 0.05 µM
Kd (HLA-A*02:02): 0.0034 µM
Kd (HLA-A*23:01): 10.9 µM
Kd (HLA-A*29:02): ≥ 36.9 µM

NTCDGNTFTY
Kd (HLA-A*68:01): 1.06 µM
Kd (HLA-A*24:02): 5.75 µM
Kd (HLA-A*11:01 [5]): 0.0236 µM
Kd (HLA-A*30:02): ≥ 125 µM
Kd (HLA-A*01:01 [3]): ≥ 89.3 µM
Kd (HLA-A*33:01): 13.2 µM
Kd (HLA-A*26:01 [4]): ≥ 77.9 µM
Kd (HLA-A*03:01 [6]): 0.00225 µM
Kd (HLA-A*23:01): 5.34 µM
Kd (HLA-A*31:01 [7]): 0.0334 µM
Kd (HLA-A*29:02): ≥ 26 µM

TFHLSIPNF
Kd (HLA-A*24:03; source organism: Mammarenavirus lassaense): 0.0345 µM

HRRDLRLASM
Kd (HLA-B*08:01 [1]; [15]): 0.0112 µM

FVMFGFCYL
Kd (HLA-B*08:01 [1]; [16]): 0.865 µM

ILCVPNAVIL
Kd (HLA-B*08:01 [1]; [17]): 5.54 µM

ILMDSIFVST
Kd (HLA-B*07:02 [2]; source organism: Vaccinia virus Copenhagen): ≥ 69.6 µM

ERLQRKHGGM
Kd (HLA-B*08:01 [1]; [18]): 0.0922 µM

MLKRERNRV
Kd (HLA-B*08:01 [1]; [17]): 0.0529 µM

GYTPGQQFY
Kd (HLA-B*58:01; [19]): ≥ 20 µM
Kd (HLA-A*24:03; [19]): 5.42 µM
Kd (HLA-A*02:01; [19]): ≥ 20 µM
Kd (HLA-A*11:01 [8]; [19]): ≥ 20 µM
Kd (HLA-A*26:01 [9]; [19]): ≥ 20 µM
Kd (HLA-A*69:01; [19]): ≥ 20 µM
Kd (HLA-B*40:01; [19]): ≥ 20 µM
Kd (HLA-B*08:01 [10]; [19]): ≥ 20 µM
Kd (HLA-A*03:01 [11]; [19]): ≥ 20 µM
Kd (HLA-B*07:02 [12]; [19]): ≥ 20 µM
Kd (HLA-B*44:02; [19]): ≥ 20 µM
Kd (HLA-A*31:01 [13]): ≥ 20 µM
Kd (HLA-B*27:05; [19]): ≥ 20 µM
Kd (HLA-B*15:01; [19]): ≥ 20 µM

LFCLLNRYF
Kd (HLA-A*24:02): ≥ 77.6 µM
Kd (HLA-A*30:02): ≥ 81.1 µM
Kd (HLA-A*01:01 [3]): 3.44 µM
Kd (HLA-A*26:01 [4]): 1.14 µM
Kd (HLA-A*23:01): ≥ 70 µM
Kd (HLA-A*29:02): ≥ 40.4 µM

WKTWGKAKML
Kd (HLA-B*08:01 [1]; [17]): 3.8 µM

SVMPAWQEK
Kd (HLA-B*58:01; [20]): ≥ 20 µM
Kd (HLA-A*24:03; [20]): 10.3 µM
Kd (HLA-A*02:01; [20]): ≥ 20 µM
Kd (HLA-A*11:01 [8]; [20]): 0.00501 µM
Kd (HLA-A*01:01 [14]): ≥ 20 µM
Kd (HLA-A*26:01 [9]; [20]): ≥ 20 µM
Kd (HLA-A*69:01; [20]): ≥ 20 µM
Kd (HLA-B*40:01; [20]): ≥ 20 µM
Kd (HLA-B*08:01 [10]; [20]): ≥ 20 µM
Kd (HLA-A*03:01 [11]; [20]): 0.0741 µM
Kd (HLA-B*07:02 [12]; [20]): ≥ 20 µM
Kd (HLA-B*44:02; [20]): ≥ 20 µM
Kd (HLA-B*27:05; [20]): ≥ 20 µM
Kd (HLA-B*15:01; [20]): ≥ 20 µM

SLLFKTASG
Kd (HLA-B*08:01 [1]; [18]): 0.534 µM
